T1: clathrin heavy chain minimal ankle region (CHC^ankle, aa 358–574) (human, UniProt Q00610 358-574)
T1 construct: modified pGEX vector with a TEV-cleavable GST tag; also called CHC ankle region protein; WT CHC
T1 sequence (looked up): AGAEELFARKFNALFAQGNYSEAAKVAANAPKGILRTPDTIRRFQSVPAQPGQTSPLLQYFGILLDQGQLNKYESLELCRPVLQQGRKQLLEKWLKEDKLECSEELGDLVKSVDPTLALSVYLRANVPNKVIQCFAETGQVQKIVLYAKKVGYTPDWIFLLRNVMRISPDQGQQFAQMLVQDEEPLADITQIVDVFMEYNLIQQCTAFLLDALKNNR

T2: biotinylated Avi-tagged ankle region of clathrin (aa 358–574) (human, UniProt Q00610 358-574, biotin)
T2 construct: held on a streptavidin chip (SPR) or detected with an anti-biotin antibody (peptide arrays)
T2 sequence (looked up): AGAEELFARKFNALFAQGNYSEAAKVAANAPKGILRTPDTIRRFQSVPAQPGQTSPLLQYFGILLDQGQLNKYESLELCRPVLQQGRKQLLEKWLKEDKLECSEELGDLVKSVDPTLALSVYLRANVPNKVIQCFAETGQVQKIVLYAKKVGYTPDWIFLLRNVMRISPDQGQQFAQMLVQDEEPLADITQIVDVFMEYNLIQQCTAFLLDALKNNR

B1: GB1-pTACC3 (domain or fragment, human, UniProt Q9Y6A5 545-573, looked up)
chain: GTSSFKESALRKQ[pS]LYLKFDPLLRDSPGR
modifications: also: 15N/13C labelled
notes: human TACC3 aa 545-573 (the results say aa 546-573), pS558, fused to the small protein GB1; also called phosphorylated GB1-TACC3 CID; source: E. coli BL21 (DE3) RIL, purified; phosphorylated in situ with Aurora-A (122–403) and TPX2 (1–43); not shown: His-NusA, N-terminal, cleaved
B2: array peptide TACC3 550–568 S558D Y560W K562L (peptide, UniProt Q9Y6A5 550-568, looked up)
peptide: KESALRKQDLWLLFDPLLR
modifications: also: 8-amino-3,6-dioxaoctanoic acid spacer to cellulose membrane, end not given here
notes: human TACC3 aa 550-568 with S558D, Y560W, K562L; source: synthesised on cellulose membrane (MultiPep 2)
B3: array peptide TACC3 550–568 S558D Y560L K562L (peptide, UniProt Q9Y6A5 550-568, looked up)
peptide: KESALRKQDLLLLFDPLLR
modifications: also: 8-amino-3,6-dioxaoctanoic acid spacer to cellulose membrane, end not given here
notes: human TACC3 aa 550-568 with S558D, Y560L, K562L; source: synthesised on cellulose membrane (MultiPep 2)
B4: array peptide TACC3 550–568 S558D Y560L K562Q (peptide, UniProt Q9Y6A5 550-568, looked up)
peptide: KESALRKQDLLLQFDPLLR
modifications: also: 8-amino-3,6-dioxaoctanoic acid spacer to cellulose membrane, end not given here
notes: human TACC3 aa 550-568 with S558D, Y560L, K562Q; source: synthesised on cellulose membrane (MultiPep 2)
B5: array peptide TACC3 550–568 S558D Y560W K562L L567F (peptide, UniProt Q9Y6A5 550-568, looked up)
peptide: KESALRKQDLWLLFDPLFR
modifications: also: 8-amino-3,6-dioxaoctanoic acid spacer to cellulose membrane, end not given here
notes: human TACC3 aa 550-568 with S558D, Y560W, K562L, L567F; source: synthesised on cellulose membrane (MultiPep 2)
B6: array peptide TACC3 550–568 S558D Y560I K562L (peptide, UniProt Q9Y6A5 550-568, looked up)
peptide: KESALRKQDLILLFDPLLR
modifications: also: 8-amino-3,6-dioxaoctanoic acid spacer to cellulose membrane, end not given here
notes: human TACC3 aa 550-568 with S558D, Y560I, K562L; source: synthesised on cellulose membrane (MultiPep 2)
B7: array peptide TACC3 550–568 S558D Y560I K562L L567F (peptide, UniProt Q9Y6A5 550-568, looked up)
peptide: KESALRKQDLILLFDPLFR
modifications: also: 8-amino-3,6-dioxaoctanoic acid spacer to cellulose membrane, end not given here
notes: human TACC3 aa 550-568 with S558D, Y560I, K562L, L567F; source: synthesised on cellulose membrane (MultiPep 2)
B8: array peptide TACC3 550–568 S558D Y560L K562E L567F (peptide, UniProt Q9Y6A5 550-568, looked up)
peptide: KESALRKQDLLLEFDPLFR
modifications: also: 8-amino-3,6-dioxaoctanoic acid spacer to cellulose membrane, end not given here
notes: human TACC3 aa 550-568 with S558D, Y560L, K562E, L567F; source: synthesised on cellulose membrane (MultiPep 2)
B9: array peptide TACC3 550–568 S558D Y560L K562L L567F (peptide, UniProt Q9Y6A5 550-568, looked up)
peptide: KESALRKQDLLLLFDPLFR
modifications: also: 8-amino-3,6-dioxaoctanoic acid spacer to cellulose membrane, end not given here
notes: human TACC3 aa 550-568 with S558D, Y560L, K562L, L567F; source: synthesised on cellulose membrane (MultiPep 2)
B10: array peptide TACC3 550–568 S558D Y560L K562E (peptide, UniProt Q9Y6A5 550-568, looked up)
peptide: KESALRKQDLLLEFDPLLR
modifications: also: 8-amino-3,6-dioxaoctanoic acid spacer to cellulose membrane, end not given here
notes: human TACC3 aa 550-568 with S558D, Y560L, K562E; source: synthesised on cellulose membrane (MultiPep 2)
B11: array peptide TACC3 550–568 S558D Y560L K562I L567F (peptide, UniProt Q9Y6A5 550-568, looked up)
peptide: KESALRKQDLLLIFDPLFR
modifications: also: 8-amino-3,6-dioxaoctanoic acid spacer to cellulose membrane, end not given here
notes: human TACC3 aa 550-568 with S558D, Y560L, K562I, L567F; source: synthesised on cellulose membrane (MultiPep 2)
B12: array peptide TACC3 550–568 S558D Y560L K562Q L567F (peptide, UniProt Q9Y6A5 550-568, looked up)
peptide: KESALRKQDLLLQFDPLFR
modifications: also: 8-amino-3,6-dioxaoctanoic acid spacer to cellulose membrane, end not given here
notes: human TACC3 aa 550-568 with S558D, Y560L, K562Q, L567F; source: synthesised on cellulose membrane (MultiPep 2)
B13: array peptide TACC3 550–568 S558D Y560L K562I (peptide, UniProt Q9Y6A5 550-568, looked up)
peptide: KESALRKQDLLLIFDPLLR
modifications: also: 8-amino-3,6-dioxaoctanoic acid spacer to cellulose membrane, end not given here
notes: human TACC3 aa 550-568 with S558D, Y560L, K562I; source: synthesised on cellulose membrane (MultiPep 2)
B14: FAM-TACC3 CID K562A peptide, unphosphorylated (peptide, UniProt Q9Y6A5 549-570, looked up)
peptide: {FAM}-FKESALRKQSLYLAFDPLLRDS
notes: human TACC3 CID, aa 549-570, K562A, no phosphate; also called K562A^TACC3; source: synthetic peptide, bought: PPR, Alta Bioscience or Biomatik Corporation
B15: FAM-TACC3 CID S558E peptide (peptide, UniProt Q9Y6A5 549-570, looked up)
peptide: {FAM}-FKESALRKQELYLKFDPLLRDS
notes: human TACC3 CID, aa 549-570, S558E; also called phosphomimetic glutamic acid variant; S558E TACC3^CID; source: synthetic peptide, bought: PPR, Alta Bioscience or Biomatik Corporation
B16: FAM-pTACC3 CID R555A K562A peptide (peptide, UniProt Q9Y6A5 549-570, looked up)
peptide: {FAM}-FKESALAKQ[pS]LYLAFDPLLRDS
notes: human TACC3 CID, aa 549-570, pS558, R555A and K562A; also called R555A K562A^pTACC3; source: synthetic peptide, bought: PPR, Alta Bioscience or Biomatik Corporation
B17: FAM-pTACC3 CID K562A peptide (peptide, UniProt Q9Y6A5 549-570, looked up)
peptide: {FAM}-FKESALRKQ[pS]LYLAFDPLLRDS
notes: human TACC3 CID, aa 549-570, pS558, K562A; also called K562A^pTACC3; source: synthetic peptide, bought: PPR, Alta Bioscience or Biomatik Corporation
B18: FAM-pTACC3 CID R555A peptide (peptide, UniProt Q9Y6A5 549-570, looked up)
peptide: {FAM}-FKESALAKQ[pS]LYLKFDPLLRDS
notes: human TACC3 CID, aa 549-570, pS558, R555A; also called R555A^pTACC3; source: synthetic peptide, bought: PPR, Alta Bioscience or Biomatik Corporation

What is called Kd is a measure of binding affinity in units of concentration.

Positions of bridges follow the written chain, without caps; N, C: chain ends. Non-standard residues stand in square brackets, D forms with d. Primed or numbered codes have the meaning given here. No end group written: not given here. FAM″ = 5(6)-carboxyfluorescein label; pS = N[C@@H](COP(=O)(O)O)C(=O)O; FAM = 5(6)-carboxyfluorescein; S5 = C=CCCC[C@](C)(N)C(=O)O

One assay addresses T1, clathrin heavy chain minimal ankle …. The assay can be described thus: NMR titration; CHC titrated into ~140 μM 15N-labelled GB1-TACC3 or GB1-pTACC3 to a 1:5 CHC:TACC3 molar ratio; loss of 1H–15N HSQC peak intensity. Particulars: both partners purified.
Turning to B1, the binding result is listed as “binds”.

The next assay has as its target T2, biotinylated Avi-tagged ankle region of …. The experiment in a line: peptide or protein array; peptides synthesised on cellulose membrane; 1 μM biotinylated clathrin 358–574 in 20 mM HEPES pH 7.5, 150 mM NaCl, 5 mM DTT, 0.05% Tween-20, 1 h room temperature; anti-biotin HRP. Particulars: both partners purified.
In the case of B2, the binding result is recorded as “binds”. For B3, the binding result was “binds”.

For B4, the binding result is reported as “binds”.

For the molecule B5, the binding result is “binds”. On the same count and under the same terms, next, B6: “binds”; B7: “binds”.

As to B8, the binding result is on record as “binds”. Regarding B9, the binding result is recorded as “binds”. With B10, the binding result is listed as “binds”.

Turning to B11, the binding result is “binds”. Consider B12, for which the binding result is listed as “binds”. In the case of B13, the binding result was “binds”.

For a further assay, the target named is T1, clathrin heavy chain minimal ankle …. The experiment in a line: fluorescence polarisation; direct binding, FAM-labelled TACC3 peptides and CHC protein; 20 mM HEPES pH 7.5, 150 mM NaCl, 5 mM DTT, 0.05% Tween-20; triplicate; one-site specific binding model. Particulars: both partners purified. (In fluorescence polarisation assays a small probe gives low polarisation when free and higher when bound to something large.)
{FAM″}-KESALRK[S5]ELL[S5]EADPAFRDS-NH2 (staple 8-12) [negative control SP TACC3 (F563A & L566A)]: the Kd was around 750 µM.

B14: the affinity, expressed as Kd, was 146 µM. In turn, B15 displayed an equilibrium dissociation constant (Kd) of 314 µM. B16 registered a Kd of 26 µM. The molecule B17 showed a Kd of 23 µM. On the same count and under the same terms, next, B18: 52 µM.
